# B1: His6-myc-tagged wild-type eIF2Bα [human] / myc-tagged eIF2Bγ [not stated] (parent)
# chain 1: MDDKELIEYFKSQMKEDPDMASAVAAIRTLLEFLKRDKGETIQGLRANLTSAIETLCGVDSSVAVSSGGELFLRFISLASLEYSDYSKCKKIMIERGELFLRRISLSRNKIADLCHTFIKDGATILTHAYSRVVLRVLEAAVAAKKRFSVYVTESQPDLSGKKMAKALCHLNVPVTVVLDAAVGYIMEKADLVIVGAEGVVENGGIINKIGTNQMAVCAKAQNKPFYVVAESFKFVRLFPLNQQDVPDKFKYKADTLKVAQTGQDLKEEHPWVDYTAPSLITLLFTDLGVLTPSAVSDELIKLYL
# chain 2: MEFQAVVMAVGGGSRMTDLTSSIPKPLLPVGNKPLIWYPLNLLERVGFEEVIVVTTRDVQKALCAEFKMKMKPDIVCIPDDADMGTADSLRYIYPKLKTDVLVLSCDLITDVALHEVVDLFRAYDASLAMLMRKGQDSIEPVPGQKGKKKAVEQRDFIGVDSTGKRLLFMANEADLDEELVIKGSILQKHPRIRFHTGLVDAHLYCLKKYIVDFLMENGSITSIRSELIPYLVRKQFSSASSQQGQEEKEEDLKKKELKSLDIYSFIKEANTLNLAPYDACWNACRGDRWEDLSRSQVRCYVHIMKEGLCSRVSTLGLYMEANRQVPKLLSALCPEEPPVHSSAQIVSKHLVGVDSLIGPETQIGEKSSIKRSVIGSSCLIKDRVTITNCLLMNSVTVEEGSNIQGSVICNNAVIEKGADIKDCLIGSGQRIEAKAKRVNEVIVGNDQLMEI
# B2: His6-myc-tagged wild-type eIF2Bα [human] / myc-tagged eIF2Bβ [not stated] (parent)
# chain 1: B1 chain 1
# chain 2: MPGSAAKGSELSERIESFVETLKRGGGPRSSEEMARETLGLLRQIITDHRWSNAGELMELIRREGRRMTAAQPSETTVGNMVRRVLKIIREEYGRLHGRSDESDQQESLHKLLTSGGLNEDFSFHYAQLQSNIIEAINELLVELEGTMENIAAQALEHIHSNEVIMTIGFSRTVEAFLKEAARKRKFHVIVAECAPFCQGHEMAVNLSKAGIETTVMTDAAIFAVMSRVNKVIIGTKTILANGALRAVTGTHTLALAAKHHSTPLIVCAPMFKLSPQFPNEEDSFHKFVAPEEVLPFTEGDILEKVSVHCPVFDYVPPELITLFISNIGGNAPSYIYRLMSELYHPDDHVL
# Variants of: B1
# Experiment: Ni2+ agarose affinity purification (pull-down), western blot for myc tag, quantified
# Conditions: with myc-tagged eIF2Bγ; HEK293 cell lysates; 3 independent experiments; read off a plot
row,ratio to parent,Variant
1,0.95,chain 1 MDDKELIEYFKSQMKEDPDMASAVAAIRTLLEFLKRDKGETIQGLRANLTSAIETLCGVDSSVAVSSGGELFLRFISLASLEYSDYSKCKKIMIERGELFLRRISLSRNKIADLCHTFIKDGATILTHAYSRVVLRVLEAAVAAKKRFSVYVTESQPDLSGKKMAKALCHLNVPVTVVLDAAVGYIMEKADLVIVGAEGVVENGGIINKIGTNQMAVCAKAQNKPFYVVAESFKFVRLFPLNQQDVPDKFKYKADTLKVAQTGQDLKEEHPWVDYTARSLITLLFTDLGVLTPSAVSDELIKLYL [chain 1 P278R]
2,1.2,chain 1 MDDKELIEYFKSQMKEDPDMASAVAAIRTLLEFLKRDKGETIQGLRANLTSAIETLCGVDSSVAVSSGGELFLRFISLASLEYSDYSKCKKIMIERGELFLRRISLSRNKIADLCHTFIKDGATILTHAYSRVVLRVLEAAVAAKKRFSVYVTESQPDLSGKKMAKALCHLNVPVTVVLDAAVGYIMEKADLVIVGAEGVVENGGIIYKIGTNQMAVCAKAQNKPFYVVAESFKFVRLFPLNQQDVPDKFKYKADTLKVAQTGQDLKEEHPWVDYTAPSLITLLFTDLGVLTPSAVSDELIKLYL [chain 1 N208Y]

# Variants of: B2
# Experiment: as above
# Conditions: with myc-tagged eIF2Bβ; HEK293 cell lysates; 3 independent experiments; read off a plot
row,ratio to parent,Variant
1,0.66,chain 1 MDDKELIEYFKSQMKEDPDMASAVAAIRTLLEFLKRDKGETIQGLRANLTSAIETLCGVDSSVAVSSGGELFLRFISLASLEYSDYSKCKKIMIERGELFLRRISLSRNKIADLCHTFIKDGATILTHAYSRVVLRVLEAAVAAKKRFSVYVTESQPDLSGKKMAKALCHLNVPVTVVLDAAVGYIMEKADLVIVGAEGVVENGGIINKIGTNQMAVCAKAQNKPFYVVAESFKFVRLFPLNQQDVPDKFKYKADTLKVAQTGQDLKEEHPWVDYTARSLITLLFTDLGVLTPSAVSDELIKLYL [chain 1 P278R]
2,1,chain 1 MDDKELIEYFKSQMKEDPDMASAVAAIRTLLEFLKRDKGETIQGLRANLTSAIETLCGVDSSVAVSSGGELFLRFISLASLEYSDYSKCKKIMIERGELFLRRISLSRNKIADLCHTFIKDGATILTHAYSRVVLRVLEAAVAAKKRFSVYVTESQPDLSGKKMAKALCHLNVPVTVVLDAAVGYIMEKADLVIVGAEGVVENGGIIYKIGTNQMAVCAKAQNKPFYVVAESFKFVRLFPLNQQDVPDKFKYKADTLKVAQTGQDLKEEHPWVDYTAPSLITLLFTDLGVLTPSAVSDELIKLYL [chain 1 N208Y]
